Experimental data published in publication doi:10.1101/2021.05.26.445723 (bioRxiv, 2021).

Biological target: GST-Sir3^SaID (S. cerevisiae, UniProt P06701 531-723)
Assay: pull-down

GST-Sir3^SaID, sequence (P06701 531-723): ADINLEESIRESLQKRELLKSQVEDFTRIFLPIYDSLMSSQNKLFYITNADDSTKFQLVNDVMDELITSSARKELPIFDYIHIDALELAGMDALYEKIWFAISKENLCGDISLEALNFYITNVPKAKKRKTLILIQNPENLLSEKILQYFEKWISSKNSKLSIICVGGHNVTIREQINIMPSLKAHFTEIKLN

- binding result: binds
B1: Sae2^C (purified) (domain or fragment, S. cerevisiae, UniProt P46946 173-345, looked up)
chain: ENPESTSPNLYKNVKDNFLFDFNTNPLTKRAWILEDFRPNEDIAPVKRGRRKLERFYAQVGKPEDSKHRSLSVVIESQNSDYEFAFDNLRNRSKSPPGFGRLDFPSTQEGNEDKKKSQEIIRRKTKYRFLMASNNKIPPYEREYVFKREQLNQIVDDGCFFWSDKLLQIYARC
